From US20120178908A1 (Novo Nordisk, published 2012)
* marks the point of attachment. Biotin = O=C1N[C@H]2[C@H](CS[C@H]2CCCCC(=O)*)N1; AEEA = NCCOCCOCC(=O)O

Legend:
Assay in all cases: peptide-walk ELISA, biotin-peptide on streptavidin plate, triple determination
[1] = biological target: T1, biotinylated 20mer TLT-1 stalk peptide 10 (N-terminal biotin via 8-amino-3,6-dioxaoctanoic acid (bio-Oeg))
T1 construct: also called well A10
T1 peptide: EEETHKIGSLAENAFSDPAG
Description: (§1) Epitope mapping by peptide walk. The peptide walking ELISA defined the minimal binding region of the peptide. This was established by coating biotinylated peptides with one residue frameshift in the stalk region of TLT-1 in streptavidin plates followed by binding of the antibody of interest (mAb 0061). A secondary antibody was added for detection and binding was measured at 450 nm. Positive control: binding to biotinylated TLT-1.
(§2) 1) 20mer peptide mapping with one residue frameshift (20,1) (see materials) 2) 16mer peptide mapping with one residue frameshift (16,1) (see materials) [0687] 1. Plate was prre-washed 3× with 250 μl wash buffer [0688] 2. 100 μl Biotinylated peptide-solution was added (from Masterplate 10000× diluted, one peptide pr well) [0689] 3. Incubated at RT for 1 hour or +5° C. over night [0690] 4. Washed 3× with wash buffer [0691] 5. 100 μl Primary antibody was added (dilution see above) [0692] 6. Incubated at RT for 1 hour [0693] 7. Washed 3× with wash buffer [0694] 8. 100 μl Secondary antibody was added (dilution see above) [0695] 9. Incubated at RT for 1 hour [0696] 10. Washed 3× with wash buffer [0697] 11. 100 μl Substrate/Develop buffer was added (Reaction time 3 min) [0698] 12. 100 μl 2M H3PO4 was added [0699] 13. Endpoint was read at 450 nm

[2] = biological target: T2, biotinylated 20mer TLT-1 stalk peptide 8 (N-terminal biotin via 8-amino-3,6-dioxaoctanoic acid (bio-Oeg))
T2 construct: also called well A 8
T2 peptide: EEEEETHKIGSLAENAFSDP
Description: as §1, §2

[3] = biological target: T3, biotinylated 16mer hTLT-1 stalk peptide 36 (SMILES …)
T3 construct: also called well C12
T3 peptide: {Biotin-AEEA}-EEEETHKIGSLAENAF-NH2
Description: as §1, §2

[4] = biological target: T4, biotinylated 20mer TLT-1 stalk peptide 6 (N-terminal biotin via 8-amino-3,6-dioxaoctanoic acid (bio-Oeg))
T4 construct: also called well A 6
T4 peptide: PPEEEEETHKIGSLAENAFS
Description: as §1, §2

[5] = biological target: T5, biotinylated 20mer TLT-1 stalk peptide 11 (N-terminal biotin via 8-amino-3,6-dioxaoctanoic acid (bio-Oeg))
T5 construct: also called well A11
T5 peptide: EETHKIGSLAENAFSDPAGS
Description: as §1, §2

[6] = biological target: T6, biotinylated 20mer TLT-1 stalk peptide 7 (N-terminal biotin via 8-amino-3,6-dioxaoctanoic acid (bio-Oeg))
T6 construct: also called well A 7
T6 peptide: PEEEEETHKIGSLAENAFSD
Description: as §1, §2

[7] = biological target: T7, biotinylated 20mer TLT-1 stalk peptide 16 (N-terminal biotin via 8-amino-3,6-dioxaoctanoic acid (bio-Oeg))
T7 construct: also called well B 4
T7 peptide: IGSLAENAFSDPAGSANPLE
Description: as §1, §2

[8] = biological target: T8, biotinylated 20mer TLT-1 stalk peptide 12 (N-terminal biotin via 8-amino-3,6-dioxaoctanoic acid (bio-Oeg))
T8 construct: also called well A12
T8 peptide: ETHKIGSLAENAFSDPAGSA
Description: as §1, §2

[9] = biological target: T9, biotinylated 16mer hTLT-1 stalk peptide 40 (SMILES …)
T9 construct: also called well D 4
T9 peptide: {Biotin-AEEA}-THKIGSLAENAFSDPA-NH2
Description: as §1, §2

[10] = biological target: T10, biotinylated 20mer TLT-1 stalk peptide 13 (N-terminal biotin via 8-amino-3,6-dioxaoctanoic acid (bio-Oeg))
T10 construct: also called well B 1
T10 peptide: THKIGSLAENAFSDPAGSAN
Description: as §1, §2

[11] = biological target: T11, biotinylated 20mer TLT-1 stalk peptide 15 (N-terminal biotin via 8-amino-3,6-dioxaoctanoic acid (bio-Oeg))
T11 construct: also called well B 3
T11 peptide: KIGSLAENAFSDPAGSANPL
Description: as §1, §2

[12] = biological target: T12, biotinylated 16mer hTLT-1 stalk peptide 38 (SMILES …)
T12 construct: also called well D 2
T12 peptide: {Biotin-AEEA}-EETHKIGSLAENAFSD-NH2
Description: as §1, §2

[13] = biological target: T13, biotinylated 20mer TLT-1 stalk peptide 14 (N-terminal biotin via 8-amino-3,6-dioxaoctanoic acid (bio-Oeg))
T13 construct: also called well B 2
T13 peptide: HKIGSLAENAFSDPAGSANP
Description: as §1, §2

[14] = biological target: T14, biotinylated 16mer hTLT-1 stalk peptide 42 (SMILES …)
T14 construct: also called well D 6
T14 peptide: {Biotin-AEEA}-KIGSLAENAFSDPAGS-NH2
Description: as §1, §2

[15] = biological target: T15, biotinylated 20mer TLT-1 stalk peptide 9 (N-terminal biotin via 8-amino-3,6-dioxaoctanoic acid (bio-Oeg))
T15 construct: also called well A 9
T15 peptide: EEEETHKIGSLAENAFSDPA
Description: as §1, §2

[16] = biological target: T16, biotinylated 20mer TLT-1 stalk peptide 5 (N-terminal biotin via 8-amino-3,6-dioxaoctanoic acid (bio-Oeg))
T16 construct: also called well A 5
T16 peptide: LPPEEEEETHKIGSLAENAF
Description: as §1, §2

[17] = biological target: T17, biotinylated 16mer hTLT-1 stalk peptide 37 (SMILES …)
T17 construct: also called well D 1
T17 peptide: {Biotin-AEEA}-EEETHKIGSLAENAFS-NH2
Description: as §1, §2

[18] = biological target: T18, biotinylated 16mer hTLT-1 stalk peptide 39 (SMILES …)
T18 construct: also called well D 3
T18 peptide: {Biotin-AEEA}-ETHKIGSLAENAFSDP-NH2
Description: as §1, §2

[19] = biological target: T19, biotinylated 16mer hTLT-1 stalk peptide 41 (SMILES …)
T19 construct: also called well D 5
T19 peptide: {Biotin-AEEA}-HKIGSLAENAFSDPAG-NH2
Description: as §1, §2

Measured: absorbance at 450 nm

B1: mAb 0061 HC2; LC2 (antibody, V domains shown)
VH: EVKLLESGGGLVQPGGSLKLSCAASGFDFSRYWMTWVRQAPGKGLEWIGEINPDSSTINYNPSLKDKFIISRDNAKNTLYLQMSEVRSEDTALYYCASGVFTSWGQGTLVTVSA
VL: DVVMTQTPLSLPVSLGDQASISCRSSQSLVHRNGNTYFHWALQKPGQSPKLLIYKVSNRFSGVPDRFSGSGSGTDFTLKISRVEAEDLGVYFCSQSTHVPYTFGGGTKLEIKR
notes: also called 0197-0000-0061; 0012HC.T60N + 0012LC.C36A
> 3 A450: all assays above
